From patent publication US20250092156A1 come the findings set out here.

The assay concerns the target FLAG-tagged WT RPTPα (WT-RPTPA, NM 008980.2, C-terminal FLAG) (mouse) (UniProt P18052). Description: FLIM-FRET, anti-HA A488 donor with anti-FLAG A568 acceptor; unquenched donor around 2.4 ns.

Chain of FLAG-tagged WT RPTPα (WT-RPTPA, NM 008980.2, C-terminal FLAG) (mouse) (P18052 20-829 limits assumed): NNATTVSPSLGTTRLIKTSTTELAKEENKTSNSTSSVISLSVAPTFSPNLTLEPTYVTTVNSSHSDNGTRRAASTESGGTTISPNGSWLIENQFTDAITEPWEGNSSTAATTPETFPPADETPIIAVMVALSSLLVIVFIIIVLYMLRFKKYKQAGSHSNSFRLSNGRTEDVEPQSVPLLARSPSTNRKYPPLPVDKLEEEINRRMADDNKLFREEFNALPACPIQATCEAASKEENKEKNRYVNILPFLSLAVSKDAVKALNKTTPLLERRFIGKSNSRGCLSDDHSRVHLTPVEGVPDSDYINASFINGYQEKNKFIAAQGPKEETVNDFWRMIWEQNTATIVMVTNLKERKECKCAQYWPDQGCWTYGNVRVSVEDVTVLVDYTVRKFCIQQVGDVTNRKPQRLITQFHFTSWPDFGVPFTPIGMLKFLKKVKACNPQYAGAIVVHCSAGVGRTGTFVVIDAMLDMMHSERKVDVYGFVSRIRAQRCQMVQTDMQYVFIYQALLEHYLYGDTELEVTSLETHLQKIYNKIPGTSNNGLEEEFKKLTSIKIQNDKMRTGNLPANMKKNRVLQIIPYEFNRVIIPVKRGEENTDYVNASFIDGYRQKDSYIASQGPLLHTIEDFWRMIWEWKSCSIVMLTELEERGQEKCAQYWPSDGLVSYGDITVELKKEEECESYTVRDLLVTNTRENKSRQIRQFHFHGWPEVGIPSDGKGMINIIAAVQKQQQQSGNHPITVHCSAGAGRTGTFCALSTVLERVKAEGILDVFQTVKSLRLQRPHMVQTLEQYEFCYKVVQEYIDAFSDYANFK
Chain of HA-tagged WT RPTPα (WT-RPTPA, NM 008980.2, C-terminal HA) (P18052 20-829): as the sequence (P18052 20-829 limits assumed) above

Regarding “HA-tagged WT RPTPα (WT-RPTPA, NM 008980.2, C-terminal HA) (from UniProt P18052 20-829) (receptor)”, the donor fluorescence lifetime of quenched (H-FRET) population was found to be 1.15 ns.
